Results published in paper PMC12528385 (Nature Communications, 2025).

B1: monoclonal antibody 83-14 against the human insulin receptor (antibody, V domains shown)
VH: QVQLQQSGPELVKPGALVKISCKASGYTFTNYDIHWVKQRPGQGLEWIGWIYPGDGSTKYNEKFKGKATLTADKSSSTAYMHLSSLTSEKSAVYFCAREWAYWGQGTLVTVSA
VL: DIQMTQSPSSLSASLGERVSLTCRASQDIGGNLYWLQQGPDGTIKRLIYATSSLDSGVPKRFSGSRSGSDYSLTISSLESEDFVDYYCLQYSSSPWTFGGGTKLEIK
B2: monoclonal antibody 83-7 against the human insulin receptor (antibody, V domains shown)
VH: QVQLKESGPGLVAPSQSLSITCTVSGFPLTAYGVNWVRQPPGKGLEWLGMIWGDGNTDYNSALKSRLSISKDNSKSQVFLKMNSLQTDDTARYYCARDPYGSKPMDYWGQGTSVTVSS
VL: DIVMSQSPSSLVVSVGEKVTMSCKSSQSLLYSSNQKNFLAWYQQKPGQSPKLLIYWASTRESGVPDRFTGSGSGTDFTLTISSVKAEDLAVYYCQQYFRYRTFGGGTKLEIK

Target: human insulin receptor, B isoform (exon 11+), wild type (human, UniProt P06213)
Experiment: flow cytometry on cells

| Binder | binding result |
| --- | --- |
| B1 | binds |
| B2 | binds |
